In patent US20250320302A1 (EVOTEC INTERNATIONAL, published 2025):
Substitutions are numbered along the chain they refer to.

T1: human type I IFN receptor on HEK-Blue IFN-α/β cells (human, UniProt P17181 28-557; P48551 27-515)
T1 sequence (looked up) 1: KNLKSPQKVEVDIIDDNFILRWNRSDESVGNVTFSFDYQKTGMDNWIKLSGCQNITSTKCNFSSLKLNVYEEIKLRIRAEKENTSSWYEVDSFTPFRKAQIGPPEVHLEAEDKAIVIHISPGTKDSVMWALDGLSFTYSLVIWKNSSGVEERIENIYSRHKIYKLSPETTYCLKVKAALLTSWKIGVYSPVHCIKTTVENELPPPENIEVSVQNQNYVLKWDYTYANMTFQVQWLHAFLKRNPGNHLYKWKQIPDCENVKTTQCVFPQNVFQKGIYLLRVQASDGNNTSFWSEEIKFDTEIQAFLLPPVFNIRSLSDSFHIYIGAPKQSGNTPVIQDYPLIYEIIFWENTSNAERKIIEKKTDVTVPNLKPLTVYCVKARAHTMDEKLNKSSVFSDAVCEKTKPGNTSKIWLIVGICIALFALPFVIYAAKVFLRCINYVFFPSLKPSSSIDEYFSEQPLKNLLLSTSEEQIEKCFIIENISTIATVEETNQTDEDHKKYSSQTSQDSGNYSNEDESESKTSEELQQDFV
T1 sequence (looked up) 2: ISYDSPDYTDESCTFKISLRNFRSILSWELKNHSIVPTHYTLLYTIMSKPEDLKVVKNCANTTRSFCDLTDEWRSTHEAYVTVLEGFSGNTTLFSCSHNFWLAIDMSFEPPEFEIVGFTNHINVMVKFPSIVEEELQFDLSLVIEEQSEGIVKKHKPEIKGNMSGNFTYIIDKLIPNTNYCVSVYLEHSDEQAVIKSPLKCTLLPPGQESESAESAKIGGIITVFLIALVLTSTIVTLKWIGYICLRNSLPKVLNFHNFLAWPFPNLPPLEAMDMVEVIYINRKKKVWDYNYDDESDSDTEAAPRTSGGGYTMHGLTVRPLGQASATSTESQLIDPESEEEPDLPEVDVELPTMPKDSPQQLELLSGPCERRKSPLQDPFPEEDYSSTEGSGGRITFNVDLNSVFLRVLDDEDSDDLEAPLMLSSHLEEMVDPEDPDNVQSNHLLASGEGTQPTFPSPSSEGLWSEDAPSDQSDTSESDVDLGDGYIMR

B1: IFA106 (antibody, human IgG2, kappa)
heavy: QVQLVESGGGVVQPGKSLRLSCAASGFTFSSNGIHWVRQAPGKGLEWVAVIWSDGSNKFYADSVKGRFTISRDNSKNTLYLQMNSLRAEDTAVYYCARASGSGSYYNFFDYWGQGTLVTVSSASTKGPSVFPLAPCSRSTSESTAALGCLVKDYFPEPVTVSWNSGALTSGVHTFPAVLQSSGLYSLSSVVTVPSSNFGTQTYTCNVDHKPSNTKVDKTVERKCCVECPPCPAPPVAGPSVFLFPPKPKDTLMISRTPEVTCVVVDVSHEDPEVQFNWYVDGVEVHNAKTKPREEQFNSTFRVVSVLTVVHQDWLNGKEYKCKVSNKGLPAPIEKTISKTKGQPREPQVYTLPPSREEMTKNQVSLTCLVKGFYPSDIAVEWESNGQPENNYKTTPPMLDSDGSFFLYSKLTVDKSRWQQGNVFSCSVMHEALHNHYTQKSLSLSPGPAPASYNLLGFLQRSSNFQCQKLLWQLNGRLEYCLKDRMNFDIPEEIKQLQQFQKEDAALTIYEMLQNIFAIFRQDSSSTGWNETIVENLLANVYHQINHLKTVLEEKLEKEDFTRGKLMSSLHLKRYYGRILHYLKAKEYSHCAWTIVRVEILRNFYFINRLTGYLRN
light: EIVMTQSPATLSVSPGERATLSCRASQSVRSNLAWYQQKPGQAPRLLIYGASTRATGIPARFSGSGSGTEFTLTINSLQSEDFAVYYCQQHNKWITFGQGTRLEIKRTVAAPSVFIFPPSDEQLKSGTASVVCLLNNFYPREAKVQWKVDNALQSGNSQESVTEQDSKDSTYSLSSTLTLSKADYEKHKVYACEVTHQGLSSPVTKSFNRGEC
B2: IFA107 (antibody, human IgG2, kappa)
heavy: B1 heavy with C467S
light: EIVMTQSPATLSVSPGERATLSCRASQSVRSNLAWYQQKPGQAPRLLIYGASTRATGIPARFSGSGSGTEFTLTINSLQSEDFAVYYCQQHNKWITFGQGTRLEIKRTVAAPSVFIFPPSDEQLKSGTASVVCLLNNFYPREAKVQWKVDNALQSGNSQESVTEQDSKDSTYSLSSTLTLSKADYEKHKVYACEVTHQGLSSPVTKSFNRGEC
B3: IFA12 (antibody, human IgG2, kappa)
light: DIQMTQSPSSVSASVGDRVTITCRASQGIYSWLAWYQQKPGKAPNLLIYTASTLQSGVPSRFSGSGSGTDFTLTISSLQPEDFATYYCQQANIFPLTFGGGTKVEIKRTVAAPSVFIFPPSDEQLKSGTASVVCLLNNFYPREAKVQWKVDNALQSGNSQESVTEQDSKDSTYSLSSTLTLSKADYEKHKVYACEVTHQGLSSPVTKSFNRGECPAPAMSYNLLGFLQRSSNFQCQKLLWQLNGRLEYCLKDRMNFDIPEEIKQLQQFQKEDAALTIYEMLQNIFAIFRQDSSSTGWNETIVENLLANVYHQINHLKTVLEEKLEKEDFTRGKLMSSLHLKRYYGRILHYLKAKEYSHCAWTIVRVEILRNFYFINRLTGYLRN
heavy: not shown
B4: IFA13 (antibody, human IgG2, kappa)
light: B3 light with C235S
heavy: not shown
B5: IFA10 (antibody, human IgG2, kappa)
heavy: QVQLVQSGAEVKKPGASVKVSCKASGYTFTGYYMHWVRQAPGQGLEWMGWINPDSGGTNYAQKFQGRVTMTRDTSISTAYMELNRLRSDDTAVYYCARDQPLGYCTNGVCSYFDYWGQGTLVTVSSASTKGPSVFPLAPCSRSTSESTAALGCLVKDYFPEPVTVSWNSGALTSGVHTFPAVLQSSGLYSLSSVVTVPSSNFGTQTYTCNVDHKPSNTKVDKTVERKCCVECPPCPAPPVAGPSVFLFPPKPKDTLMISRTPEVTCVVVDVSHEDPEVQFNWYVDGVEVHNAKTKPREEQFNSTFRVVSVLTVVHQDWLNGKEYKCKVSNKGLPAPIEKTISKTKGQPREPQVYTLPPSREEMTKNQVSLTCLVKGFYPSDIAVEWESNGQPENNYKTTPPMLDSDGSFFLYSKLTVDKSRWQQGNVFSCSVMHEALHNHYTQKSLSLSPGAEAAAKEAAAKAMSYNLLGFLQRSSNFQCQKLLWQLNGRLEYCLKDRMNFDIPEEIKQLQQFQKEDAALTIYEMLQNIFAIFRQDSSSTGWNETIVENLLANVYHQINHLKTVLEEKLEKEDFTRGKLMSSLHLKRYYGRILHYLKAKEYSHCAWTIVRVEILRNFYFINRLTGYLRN
light: DIQMTQSPSSVSASVGDRVTITCRASQGIYSWLAWYQQKPGKAPNLLIYTASTLQSGVPSRFSGSGSGTDFTLTISSLQPEDFATYYCQQANIFPLTFGGGTKVEIKRTVAAPSVFIFPPSDEQLKSGTASVVCLLNNFYPREAKVQWKVDNALQSGNSQESVTEQDSKDSTYSLSSTLTLSKADYEKHKVYACEVTHQGLSSPVTKSFNRGEC
B6: IFA8 (antibody, human IgG2, kappa)
heavy: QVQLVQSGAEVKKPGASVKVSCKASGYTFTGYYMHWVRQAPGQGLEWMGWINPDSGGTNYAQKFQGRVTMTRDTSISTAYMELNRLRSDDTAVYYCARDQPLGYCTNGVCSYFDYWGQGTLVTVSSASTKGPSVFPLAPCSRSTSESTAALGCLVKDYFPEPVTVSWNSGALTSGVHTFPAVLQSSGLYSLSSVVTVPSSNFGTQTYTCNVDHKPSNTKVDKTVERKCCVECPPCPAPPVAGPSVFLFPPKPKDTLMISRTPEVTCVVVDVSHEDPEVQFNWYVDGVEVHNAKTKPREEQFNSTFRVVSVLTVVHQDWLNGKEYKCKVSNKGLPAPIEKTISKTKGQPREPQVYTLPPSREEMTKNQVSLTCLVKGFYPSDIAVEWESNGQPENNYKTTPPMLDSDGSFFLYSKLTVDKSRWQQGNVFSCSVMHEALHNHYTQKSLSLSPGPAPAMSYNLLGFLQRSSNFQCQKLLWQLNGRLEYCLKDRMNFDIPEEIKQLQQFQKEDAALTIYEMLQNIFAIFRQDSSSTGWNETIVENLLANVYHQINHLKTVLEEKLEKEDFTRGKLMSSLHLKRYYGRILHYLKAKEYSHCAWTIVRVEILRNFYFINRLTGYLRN
light: B5 light
B7: IFA11 (antibody, human IgG2, kappa)
heavy: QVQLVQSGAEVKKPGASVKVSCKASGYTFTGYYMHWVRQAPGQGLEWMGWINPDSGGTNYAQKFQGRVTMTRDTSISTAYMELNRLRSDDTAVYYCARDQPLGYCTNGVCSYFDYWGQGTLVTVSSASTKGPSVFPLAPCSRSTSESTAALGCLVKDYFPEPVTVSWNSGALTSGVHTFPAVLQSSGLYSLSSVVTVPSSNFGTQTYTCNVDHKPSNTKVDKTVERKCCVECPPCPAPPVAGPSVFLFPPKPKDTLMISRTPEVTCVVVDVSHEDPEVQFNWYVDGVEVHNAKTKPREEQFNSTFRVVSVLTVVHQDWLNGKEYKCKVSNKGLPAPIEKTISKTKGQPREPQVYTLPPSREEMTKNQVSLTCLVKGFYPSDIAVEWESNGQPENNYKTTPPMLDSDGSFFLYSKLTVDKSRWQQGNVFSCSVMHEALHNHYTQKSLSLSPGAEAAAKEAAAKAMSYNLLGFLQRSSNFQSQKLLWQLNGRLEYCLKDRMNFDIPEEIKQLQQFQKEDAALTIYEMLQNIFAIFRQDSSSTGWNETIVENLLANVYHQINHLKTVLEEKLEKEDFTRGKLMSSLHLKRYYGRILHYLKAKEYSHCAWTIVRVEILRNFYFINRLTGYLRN
light: B5 light
B8: IFA49 (antibody, human IgG2, kappa)
heavy: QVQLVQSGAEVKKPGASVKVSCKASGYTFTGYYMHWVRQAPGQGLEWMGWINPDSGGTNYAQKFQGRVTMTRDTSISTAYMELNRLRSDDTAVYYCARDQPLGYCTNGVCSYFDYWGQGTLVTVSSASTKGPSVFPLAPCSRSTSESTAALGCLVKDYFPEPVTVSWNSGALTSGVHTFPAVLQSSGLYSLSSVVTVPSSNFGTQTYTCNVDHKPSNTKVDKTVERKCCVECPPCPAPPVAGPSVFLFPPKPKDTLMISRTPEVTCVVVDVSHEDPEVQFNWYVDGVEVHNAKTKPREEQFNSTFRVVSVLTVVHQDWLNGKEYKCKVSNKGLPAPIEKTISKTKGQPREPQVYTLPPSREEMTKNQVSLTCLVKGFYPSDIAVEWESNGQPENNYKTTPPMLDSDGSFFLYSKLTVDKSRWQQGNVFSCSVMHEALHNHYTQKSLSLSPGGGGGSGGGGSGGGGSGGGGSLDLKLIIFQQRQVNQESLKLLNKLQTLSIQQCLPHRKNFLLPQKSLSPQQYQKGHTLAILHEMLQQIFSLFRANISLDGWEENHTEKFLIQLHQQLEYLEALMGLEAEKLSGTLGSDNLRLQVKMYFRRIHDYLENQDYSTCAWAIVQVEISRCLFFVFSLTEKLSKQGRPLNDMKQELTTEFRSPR
light: B5 light
B9: IFA9 (antibody, human IgG2, kappa)
heavy: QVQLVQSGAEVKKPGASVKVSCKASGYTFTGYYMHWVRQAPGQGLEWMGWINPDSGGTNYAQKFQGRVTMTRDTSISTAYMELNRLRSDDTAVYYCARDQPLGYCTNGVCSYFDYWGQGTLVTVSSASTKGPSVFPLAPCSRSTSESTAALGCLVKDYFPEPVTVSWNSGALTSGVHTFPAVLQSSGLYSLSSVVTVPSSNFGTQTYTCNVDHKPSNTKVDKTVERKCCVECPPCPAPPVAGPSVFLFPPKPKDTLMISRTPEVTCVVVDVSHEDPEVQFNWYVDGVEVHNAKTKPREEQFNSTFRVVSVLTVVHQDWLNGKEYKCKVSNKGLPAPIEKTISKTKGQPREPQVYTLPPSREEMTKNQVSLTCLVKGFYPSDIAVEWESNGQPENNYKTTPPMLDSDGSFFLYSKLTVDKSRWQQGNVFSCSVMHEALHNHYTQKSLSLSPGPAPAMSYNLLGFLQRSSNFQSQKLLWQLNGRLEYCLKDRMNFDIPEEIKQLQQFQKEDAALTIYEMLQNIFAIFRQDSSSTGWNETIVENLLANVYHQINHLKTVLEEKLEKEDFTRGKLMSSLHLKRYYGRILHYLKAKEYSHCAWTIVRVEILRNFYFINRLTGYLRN
light: B5 light
B10: IFA20 (antibody, human IgG2, kappa)
light: DIQMTQSPSSVSASVGDRVTITCRASQGIYSWLAWYQQKPGKAPNLLIYTASTLQSGVPSRFSGSGSGTDFTLTISSLQPEDFATYYCQQANIFPLTFGGGTKVEIKRTVAAPSVFIFPPSDEQLKSGTASVVCLLNNFYPREAKVQWKVDNALQSGNSQESVTEQDSKDSTYSLSSTLTLSKADYEKHKVYACEVTHQGLSSPVTKSFNRGECAEAAAKEAAAKAAEAAAKEAAAKAMSYNLLGFLQRSSNFQSQKLLWQLNGRLEYCLKDRMNFDIPEEIKQLQQFQKEDAALTIYEMLQNIFAIFRQDSSSTGWNETIVENLLANVYHQINHLKTVLEEKLEKEDFTRGKLMSSLHLKRYYGRILHYLKAKEYSHCAWTIVRVEILRNFYFINRLTGYLRN
heavy: not shown
B11: IFA126 (antibody, human IgG2, kappa)
light: DIQMTQSPSSVSASVGDRVTITCRASQGIYSWLAWYQQKPGKAPNLLIYTASTLQSGVPSRFSGSGSGTDFTLTISSLQPEDFATYYCQQANIFPLTFGGGTKVEIKRTVAAPSVFIFPPSDEQLKSGTASVVCLLNNFYPREAKVQWKVDNALQSGNSQESVTEQDSKDSTYSLSSTLTLSKADYEKHKVYACEVTHQGLSSPVTKSFNRGECGGGGSGGGGSGGGGSMSYNLLGFLQRSSNFQSQKLLWQLNGRLEYCLKDRMNFDIPEEIKQLQQFQKEDAALTIYEMLQNIFAIFRQDSSSTGWNETIVENLLANVYHQINHLKTVLEEKLEKEDFTRGKLMSSLHLKRYYGRILHYLKAKEYSHCAWTIVRVEILRNFYFINRLTGYLRN
heavy: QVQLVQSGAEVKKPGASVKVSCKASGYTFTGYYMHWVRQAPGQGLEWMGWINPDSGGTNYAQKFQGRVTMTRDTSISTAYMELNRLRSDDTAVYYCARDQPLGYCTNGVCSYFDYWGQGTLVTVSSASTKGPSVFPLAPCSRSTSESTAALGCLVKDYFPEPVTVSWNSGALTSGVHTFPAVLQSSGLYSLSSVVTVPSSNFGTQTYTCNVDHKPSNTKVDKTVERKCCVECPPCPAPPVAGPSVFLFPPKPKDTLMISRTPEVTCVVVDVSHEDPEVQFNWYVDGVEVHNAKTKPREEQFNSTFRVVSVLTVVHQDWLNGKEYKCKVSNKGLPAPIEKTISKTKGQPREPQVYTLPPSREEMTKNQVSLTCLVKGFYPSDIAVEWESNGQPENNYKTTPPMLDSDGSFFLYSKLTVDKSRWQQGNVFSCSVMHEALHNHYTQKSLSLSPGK
B12: IFA1 (antibody, human IgG2, kappa)
light: DIQMTQSPSSVSASVGDRVTITCRASQGIYSWLAWYQQKPGKAPNLLIYTASTLQSGVPSRFSGSGSGTDFTLTISSLQPEDFATYYCQQANIFPLTFGGGTKVEIKRTVAAPSVFIFPPSDEQLKSGTASVVCLLNNFYPREAKVQWKVDNALQSGNSQESVTEQDSKDSTYSLSSTLTLSKADYEKHKVYACEVTHQGLSSPVTKSFNRGECAEAAAKEAAAKAMSYNLLGFLQRSSNFQCQKLLWQLNGRLEYCLKDRMNFDIPEEIKQLQQFQKEDAALTIYEMLQNIFAIFRQDSSSTGWNETIVENLLANVYHQINHLKTVLEEKLEKEDFTRGKLMSSLHLKRYYGRILHYLKAKEYSHCAWTIVRVEILRNFYFINRLTGYLRN
heavy: not shown
B13: IFA2 (antibody, human IgG2, kappa)
light: B12 light with C243S
heavy: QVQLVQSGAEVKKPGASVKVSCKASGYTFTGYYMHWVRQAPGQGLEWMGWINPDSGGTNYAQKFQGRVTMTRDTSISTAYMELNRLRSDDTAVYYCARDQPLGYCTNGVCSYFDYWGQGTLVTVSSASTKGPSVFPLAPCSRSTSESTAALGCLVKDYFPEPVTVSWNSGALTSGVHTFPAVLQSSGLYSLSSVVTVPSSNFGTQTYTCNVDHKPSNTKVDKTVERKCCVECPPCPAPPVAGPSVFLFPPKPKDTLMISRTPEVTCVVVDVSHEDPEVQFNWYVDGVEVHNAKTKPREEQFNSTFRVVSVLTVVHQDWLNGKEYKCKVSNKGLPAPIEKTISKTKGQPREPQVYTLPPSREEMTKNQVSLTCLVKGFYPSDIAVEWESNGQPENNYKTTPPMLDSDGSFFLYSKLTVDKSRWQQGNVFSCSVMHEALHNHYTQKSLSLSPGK
B14: IFA19 (antibody, human IgG2, kappa)
light: DIQMTQSPSSVSASVGDRVTITCRASQGIYSWLAWYQQKPGKAPNLLIYTASTLQSGVPSRFSGSGSGTDFTLTISSLQPEDFATYYCQQANIFPLTFGGGTKVEIKRTVAAPSVFIFPPSDEQLKSGTASVVCLLNNFYPREAKVQWKVDNALQSGNSQESVTEQDSKDSTYSLSSTLTLSKADYEKHKVYACEVTHQGLSSPVTKSFNRGECSGGTSGSTSGTGSMSYNLLGFLQRSSNFQSQKLLWQLNGRLEYCLKDRMNFDIPEEIKQLQQFQKEDAALTIYEMLQNIFAIFRQDSSSTGWNETIVENLLANVYHQINHLKTVLEEKLEKEDFTRGKLMSSLHLKRYYGRILHYLKAKEYSHCAWTIVRVEILRNFYFINRLTGYLRN
heavy: not shown

target: T1, human type I IFN receptor on HEK-Blue …; assay: cell-based or functional assay

Row | IFNβ EC50 (HEK-Blue IFN-α/β SEAP reporter cells) | Binder
1 | 0.0103 µg/mL | B1
2 | 0.00203 µg/mL | B2

target: T2, human CD40 (human, UniProt P25942 21-277); assay: cell-based or functional assay
T2 sequence (P25942 21-277): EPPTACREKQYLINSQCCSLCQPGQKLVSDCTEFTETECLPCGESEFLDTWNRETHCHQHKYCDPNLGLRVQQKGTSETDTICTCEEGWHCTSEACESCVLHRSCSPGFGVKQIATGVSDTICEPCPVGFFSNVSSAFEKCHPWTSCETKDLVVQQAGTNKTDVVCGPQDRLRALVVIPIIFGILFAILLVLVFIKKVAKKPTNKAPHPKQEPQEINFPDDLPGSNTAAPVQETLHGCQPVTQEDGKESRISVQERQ

Row | CD40 EC50 (HEK-Blue CD40L NFκB-SEAP reporter cells) | Binder
3 | 0.191 µg/mL | B1
4 | 0.142 µg/mL | B2

target: T1, human type I IFN receptor on HEK-Blue …; assay: cell-based or functional assay; remark: another data set of the same source

Row | IFNβ EC50 (HEK-Blue IFN-α/β SEAP reporter cells) | IFNε EC50 (HEK-Blue IFN-α/β SEAP reporter cells) | Binder
5 | 0.00364 µg/mL | – | B3
6 | 0.0007 µg/mL | – | B4
7 | 0.0045 µg/mL | – | B5
8 | 0.0029 µg/mL | – | B6
9 | 0.00178 µg/mL | – | B7
10 | – | 0.0782 µg/mL | B8
11 | 0.0007 µg/mL | – | B9
12 | 0.00234 µg/mL | – | B10
13 | 0.00208 µg/mL | – | B11
14 | 0.00164 µg/mL | – | B12
15 | 0.00014 µg/mL | – | B13
16 | 0.0013 µg/mL | – | B14

target: T2, human CD40; assay: cell-based or functional assay; remark: another data set of the same source

Row | CD40 EC50 (HEK-Blue CD40L NFκB-SEAP reporter cells) | Binder
17 | 0.105 µg/mL | B3
18 | 0.192 µg/mL | B4
19 | 0.0265 µg/mL | B5
20 | 0.0397 µg/mL | B6
21 | 0.0428 µg/mL | B7
22 | 0.0658 µg/mL | B8
23 | 0.0426 µg/mL | B9
24 | 0.182 µg/mL | B10
25 | 0.364 µg/mL | B11
26 | 0.0741 µg/mL | B12
27 | 0.111 µg/mL | B13
28 | 0.11 µg/mL | B14
